In patent publication US20240116997A1 (BRIGHT PEAK THERAPEUTICS, published 2024):
Where two headings read alike, the source gives them in different places.

T1: IL-18 receptor (IL-18Rαβ) on cells (UniProt Q13478 19-541; O95256 20-599, limits assumed)
T1 sequence (looked up) 1: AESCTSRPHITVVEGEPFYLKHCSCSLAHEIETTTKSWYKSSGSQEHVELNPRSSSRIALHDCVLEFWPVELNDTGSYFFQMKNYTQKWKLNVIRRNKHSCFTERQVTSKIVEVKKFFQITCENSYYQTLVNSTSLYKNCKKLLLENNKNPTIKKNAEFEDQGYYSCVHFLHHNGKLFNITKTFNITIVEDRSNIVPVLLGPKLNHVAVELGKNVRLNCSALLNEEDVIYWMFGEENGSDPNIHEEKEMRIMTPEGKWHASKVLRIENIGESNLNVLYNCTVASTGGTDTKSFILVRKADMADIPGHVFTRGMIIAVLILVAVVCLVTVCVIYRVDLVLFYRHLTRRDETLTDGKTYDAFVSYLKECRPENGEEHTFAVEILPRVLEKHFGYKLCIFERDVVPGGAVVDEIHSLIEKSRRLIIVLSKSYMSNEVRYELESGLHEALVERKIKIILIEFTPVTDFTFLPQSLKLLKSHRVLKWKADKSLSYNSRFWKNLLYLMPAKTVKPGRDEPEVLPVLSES
T1 sequence (looked up) 2: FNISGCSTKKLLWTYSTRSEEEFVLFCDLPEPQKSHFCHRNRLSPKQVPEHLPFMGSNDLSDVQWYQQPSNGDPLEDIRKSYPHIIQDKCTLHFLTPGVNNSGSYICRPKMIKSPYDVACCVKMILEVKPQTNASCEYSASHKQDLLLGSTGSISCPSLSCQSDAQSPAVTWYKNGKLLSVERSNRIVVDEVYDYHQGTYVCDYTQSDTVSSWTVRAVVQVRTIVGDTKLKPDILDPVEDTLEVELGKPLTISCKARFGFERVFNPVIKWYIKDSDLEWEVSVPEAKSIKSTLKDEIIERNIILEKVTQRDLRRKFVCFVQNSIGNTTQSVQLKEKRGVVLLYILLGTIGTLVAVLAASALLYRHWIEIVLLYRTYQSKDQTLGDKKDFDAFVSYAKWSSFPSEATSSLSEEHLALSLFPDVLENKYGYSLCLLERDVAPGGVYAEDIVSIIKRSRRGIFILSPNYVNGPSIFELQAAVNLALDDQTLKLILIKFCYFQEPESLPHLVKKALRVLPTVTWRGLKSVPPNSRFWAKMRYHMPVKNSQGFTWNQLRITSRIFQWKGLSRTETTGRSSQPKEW


Tests used:
Assay in all cases: cell-based or functional assay
[1] = molecular target: T1, IL-18 receptor (IL-18Rαβ) on cells
[2] = molecular target: T1, IL-18 receptor (IL-18Rαβ) on cells; remark: listed apart in the source
[3] = molecular target: T1, IL-18 receptor (IL-18Rαβ) on cells; remark: listed apart in the source
[4] = molecular target: T1, IL-18 receptor (IL-18Rαβ) on cells; remark: listed apart in the source
[5] = molecular target: T1, IL-18 receptor (IL-18Rαβ) on cells; remark: listed apart in the source

HEK-blue EC50 [1] [pM] | EC50 (read off the curve), HEK-Blue IL18R reporter [2] [pM] | EC50 (read off the curve), HEK-Blue IL18R reporter [3] [pM] | EC50 (pM), HEK-Blue IL-18R reporter assay [4] [pM] | EC50 (nM), IFNγ induction, NK-92 cells [5] [nM] | Fold potency loss vs C086 [1] [fold] | Binder
40 | ~0.04 | ~0.04 | 0.034 | 0.026 |  | C086 (SEQ ID NO: 30; E6K, V11I, C38A, K53A, T63A, C76A, C127A) (ligand) YFGKLKSKLSIIRNLNDQVLFIDQGNRPLFEDMTDSDARDNAPRTIFIISMYADSQPRGMAVAISVKCEKISTLSAENKIISFKEMNPPDNIKDTKSDIIFFQRSVPGHDNKMQFESSSYEGYFLAAEKERDLFKLILKKEDELGDRSIMFTVQNED
2020 | ~2 |  |  |  | 48 | C191 (C086-PLGLAG linker-IL-18Rα D3-His6; SEQ ID NO: 76) (ligand) YFGKLKSKLSIIRNLNDQVLFIDQGNRPLFEDMTDSDARDNAPRTIFIISMYADSQPRGMAVAISVKCEKISTLSAENKIISFKEMNPPDNIKDTKSDIIFFQRSVPGHDNKMQFESSSYEGYFLAAEKERDLFKLILKKEDELGDRSIMFTVQNESGGPLGLAGGSNIVPVLLGPKLNHVAVELGKNVRLNCSALLNEEDVIYWMFGEENGSDPNIHEEKEMRIMTPEGKWHASKVLRIENIGESNLNVLYNCTVASTGGTDTKSFILVRKADHHHHHH
295000 |  |  |  |  | 7000 | C127 (Propeptide-LinkerX-C086; SEQ ID NO: 69) (ligand) MAAEPVEDNCINFVAMKFIDNTLYFIAEDDENLESDSGGPGPAGMKGLPGSYFGKLKSKLSIIRNLNDQVLFIDQGNRPLFEDMTDSDARDNAPRTIFIISMYADSQPRGMAVAISVKCEKISTLSAENKIISFKEMNPPDNIKDTKSDIIFFQRSVPGHDNKMQFESSSYEGYFLAAEKERDLFKLILKKEDELGDRSIMFTVQNED
2080 |  |  |  |  | 49 | C137 (C086-GGGGSGGGGSGGGG-IL-18Rα D3-His6, non-cleavable control; SEQ ID NO: 78) (ligand) YFGKLKSKLSIIRNLNDQVLFIDQGNRPLFEDMTDSDARDNAPRTIFIISMYADSQPRGMAVAISVKCEKISTLSAENKIISFKEMNPPDNIKDTKSDIIFFQRSVPGHDNKMQFESSSYEGYFLAAEKERDLFKLILKKEDELGDRSIMFTVQNEGGGGSGGGGSGGGGSNIVPVLLGPKLNHVAVELGKNVRLNCSALLNEEDVIYWMFGEENGSDPNIHEEKEMRIMTPEGKWHASKVLRIENIGESNLNVLYNCTVASTGGTDTKSFILVRKADHHHHHH
1090 | ~1 |  |  |  | 26 | C172 (C086-LinkerX-IL-18Rα D3-His6; SEQ ID NO: 73) (ligand) YFGKLKSKLSIIRNLNDQVLFIDQGNRPLFEDMTDSDARDNAPRTIFIISMYADSQPRGMAVAISVKCEKISTLSAENKIISFKEMNPPDNIKDTKSDIIFFQRSVPGHDNKMQFESSSYEGYFLAAEKERDLFKLILKKEDELGDRSIMFTVQNESGGPGPAGMKGLPGSNIVPVLLGPKLNHVAVELGKNVRLNCSALLNEEDVIYWMFGEENGSDPNIHEEKEMRIMTPEGKWHASKVLRIENIGESNLNVLYNCTVASTGGTDTKSFILVRKADHHHHHH
884 |  |  |  |  | 21 | C136 (C086-GGSGG-IL-18Rα D3-His6, non-cleavable control; SEQ ID NO: 77) (ligand) YFGKLKSKLSIIRNLNDQVLFIDQGNRPLFEDMTDSDARDNAPRTIFIISMYADSQPRGMAVAISVKCEKISTLSAENKIISFKEMNPPDNIKDTKSDIIFFQRSVPGHDNKMQFESSSYEGYFLAAEKERDLFKLILKKEDELGDRSIMFTVQNEGGSGGSNIVPVLLGPKLNHVAVELGKNVRLNCSALLNEEDVIYWMFGEENGSDPNIHEEKEMRIMTPEGKWHASKVLRIENIGESNLNVLYNCTVASTGGTDTKSFILVRKADHHHHHH
404000 |  |  |  |  |  | C190 (Propeptide-C086, non-cleavable control; SEQ ID NO: 68) (ligand) MAAEPVEDNCINFVAMKFIDNTLYFIAEDDENLESDYFGKLKSKLSIIRNLNDQVLFIDQGNRPLFEDMTDSDARDNAPRTIFIISMYADSQPRGMAVAISVKCEKISTLSAENKIISFKEMNPPDNIKDTKSDIIFFQRSVPGHDNKMQFESSSYEGYFLAAEKERDLFKLILKKEDELGDRSIMFTVQNED
198000 |  |  |  |  |  | C190 + MMP9 (ligand) MAAEPVEDNCINFVAMKFIDNTLYFIAEDDENLESDYFGKLKSKLSIIRNLNDQVLFIDQGNRPLFEDMTDSDARDNAPRTIFIISMYADSQPRGMAVAISVKCEKISTLSAENKIISFKEMNPPDNIKDTKSDIIFFQRSVPGHDNKMQFESSSYEGYFLAAEKERDLFKLILKKEDELGDRSIMFTVQNED
430 | ~0.4 |  |  |  | 10 | C189 (C086-LinkerX-IL-18Rα D3 without glycosylation sites-His6; SEQ ID NO: 75) (ligand) YFGKLKSKLSIIRNLNDQVLFIDQGNRPLFEDMTDSDARDNAPRTIFIISMYADSQPRGMAVAISVKCEKISTLSAENKIISFKEMNPPDNIKDTKSDIIFFQRSVPGHDNKMQFESSSYEGYFLAAEKERDLFKLILKKEDELGDRSIMFTVQNESGGPGPAGMKGLPGSNIVPVLLGPKLNHVAVELGKNVRLDCSALLNEEDVIYWMFGEEDGSDPNIHEEKEMRIMTPEGKWHASKVLRIENIGESNLNVLYDCTVASTGGTDTKSFILVRKADHHHHHH
